Experimental findings from paper PMC4199913 (The FEBS journal, 2014) are described below.

In one series the target is MaTrx6Δsp (Methanosarcina acetivorans, UniProt Q8TIA1). Briefly: turbidimetric insulin reduction, […] nm. The series is classed as biochemical. Particulars: 0.33 mM DTT, 0.13 mM insulin, 100 mM KPO4 pH 6.8, anaerobic.
Another series addresses MaTrx2 (Methanosarcina acetivorans, UniProt Q8TL30). Nature of the series: turbidimetric insulin reduction, […] nm. The series is classed as biochemical. Particulars: 0.33 mM DTT, 0.13 mM insulin, 100 mM KPO4 pH 6.8, anaerobic.
The next series deals with MaTrx7 (Methanosarcina acetivorans, UniProt Q8TR15). Briefly: turbidimetric insulin reduction, […] nm. Type of series: biochemical. The settings on record: 0.33 mM DTT, 0.13 mM insulin, 100 mM KPO4 pH 6.8, anaerobic.
Substrate in series [1]: NC(=O)C1=CN([C@@H]2O[C@H](COP(=O)(O)OP(=O)(O)OC[C@H]3O[C@@H](n4cnc5c(N)ncnc54)[C@H](O)[C@@H]3O)[C@@H](O)[C@H]2O)C=CC1
Nature of the series: purified protein. Type of series: biochemical, Methanosarcina acetivorans. The settings on record: 1 mM DTNB, 0.5 µM MaTrxR, 50 mM Tris-HCl 150 mM NaCl pH 7.2, anaerobic.

Substrate in series [2]: NC(=O)C1=CN([C@@H]2O[C@H](COP(=O)(O)OP(=O)(O)OC[C@H]3O[C@@H](n4cnc5c(N)ncnc54)[C@H](OP(=O)(O)O)[C@@H]3O)[C@@H](O)[C@H]2O)C=CC1
Nature of the series: purified protein. The settings on record: 1 mM DTNB, 0.5 µM MaTrxR, 50 mM Tris-HCl 150 mM NaCl pH 7.2, anaerobic. The series is classed as biochemical, Methanosarcina acetivorans.

As for `OC(CS)C(O)CS` (stereo not drawn) [DTT], the “turbidimetric insulin reduction, 650 nm” value on MaTrx6Δsp was “All three purified MaTrxs exhibited both DTT- and lipoamide-dependent insulin reduction activity”; on MaTrx2 it was “All three purified MaTrxs exhibited both DTT- and lipoamide-dependent insulin reduction activity”; at MaTrx7, “All three purified MaTrxs exhibited both DTT- and lipoamide-dependent insulin reduction activity”.

B1: MaTrxR (Methanosarcina acetivorans C2A) (protein)
chain: MNSFLFSGGNMYDLIIIGGGPAGLAAGIYAVRFGLDTLVLEKSEISGQISMSDIVENYPGFPSISGLELMEKYRTHAQEVGVKTKITEVLSVRTEGAKKIVSTDSGDLEAKTLIIATGANPKHLGVPGEKEFISKGVSYCAICDGPFFKNKTVVVVGGGNSAVTDALLLSKVAQNVYLIHRRDRLKAAKVLQDRALATPNIEFILNTLVQEIAGSREGVKKVEKVILQDLNSKESRELSTNGVFIYVGIQPNTEFVNVEKNNEGFIITNRWMETSEKGIYAAGDCRDTPIWQLVAAVRDGAIAATAANEYIESLK
Consider B1, for which, in “purified protein [1]”, the Km (commonly the concentration of substrate that gives half-maximal velocity) was 736 ± 57 µM; the kcat (as a rule, the number of substrate molecules converted per active site and unit of time at saturation) worked out at 0.817 s⁻¹; the kcat/Km – broadly, the turnover number divided by the Michaelis constant – is 1120 M⁻¹ s⁻¹. In addition, in the series “purified protein [2]”, the Michaelis-Menten constant (Km) was found to be 6.3 ± 0.5 µM, the kcat is 0.65 s⁻¹ and the kcat/Km stood at 103000 M⁻¹ s⁻¹.
